From paper PMC6555819, “Comprehensive study of nuclear receptor DNA binding provides a revised framework for understanding receptor specificity”

Molecular target: RARb:RXRa (Homo sapiens, UniProt P10826;P19793 full;full)
Test: no ligand; PBM; 270 nM : 90 nM RXRa; PBS pH 7.4, 2% milk, 0.02% Triton X-100, 1 mM DTT, BSA, 0.4 mg/ml salmon testes DNA
Details: tags: His kept;His cleaved; copies: 1;1; label: surface-attached array probe
In short: (§1)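 Ligand-free nuclear receptor dimers were applied to custom Agilent 4×180K protein-binding microarrays whose double-stranded probes carried direct-repeat seeds, single-nucleotide variants, half-site ablations and random human genomic background sequences in 34-nt variable regions. Incubation lasted 1 h. Binding z-scores were computed against the random background probes from regression-normalized fluorescence.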

RARb:RXRa, sequence (P10826 whole entry, chain 1 of 2): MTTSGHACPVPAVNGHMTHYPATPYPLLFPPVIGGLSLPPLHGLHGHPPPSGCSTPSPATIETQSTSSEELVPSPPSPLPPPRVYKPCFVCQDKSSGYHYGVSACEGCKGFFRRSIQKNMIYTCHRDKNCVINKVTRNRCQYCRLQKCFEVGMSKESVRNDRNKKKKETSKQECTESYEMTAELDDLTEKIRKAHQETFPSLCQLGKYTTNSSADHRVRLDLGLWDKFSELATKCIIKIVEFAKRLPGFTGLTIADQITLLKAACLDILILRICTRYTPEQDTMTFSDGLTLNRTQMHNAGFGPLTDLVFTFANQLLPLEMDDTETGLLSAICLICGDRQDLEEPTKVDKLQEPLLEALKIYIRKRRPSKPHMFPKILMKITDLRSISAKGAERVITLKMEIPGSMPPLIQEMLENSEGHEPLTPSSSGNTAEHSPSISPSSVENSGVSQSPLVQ
RARb:RXRa, sequence (P19793 whole entry, chain 2 of 2): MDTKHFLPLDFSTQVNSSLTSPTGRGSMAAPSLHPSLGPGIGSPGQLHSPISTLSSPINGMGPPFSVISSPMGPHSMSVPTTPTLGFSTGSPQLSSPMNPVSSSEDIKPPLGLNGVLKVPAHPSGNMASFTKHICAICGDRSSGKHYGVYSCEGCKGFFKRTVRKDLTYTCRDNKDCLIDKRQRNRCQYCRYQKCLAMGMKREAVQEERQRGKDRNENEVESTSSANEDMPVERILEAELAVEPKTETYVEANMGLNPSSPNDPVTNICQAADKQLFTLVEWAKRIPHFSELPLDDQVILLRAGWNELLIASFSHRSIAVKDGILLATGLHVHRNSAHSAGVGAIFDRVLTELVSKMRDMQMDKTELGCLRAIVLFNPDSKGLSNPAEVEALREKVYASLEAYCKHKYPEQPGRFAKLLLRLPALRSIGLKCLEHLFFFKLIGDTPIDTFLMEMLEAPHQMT

Binder	binding signal
NRC3_wobSeed134_DR5_T8A_o1 (dsDNA) DNA 1: GCGCTGCAAGGTCAACTGATGGTCAGCTAAAGCTCGGCGATTGACAGCGTAGAATGAAGG DNA 2: CCTTCATTCTACGCTGTCAATCGCCGAGCTTTAGCTGACCATCAGTTGACCTTGCAGCGC	5.55 PBM z-score against 500 random probes
NRC3_wobSeed141_DR5_G15C_o1 (dsDNA) DNA 1: GCAGTCAAAGTTCACGACGAGGTAACGTAAAGCACGGCGATTGACAGCGTAGAATGAAGG DNA 2: CCTTCATTCTACGCTGTCAATCGCCGTGCTTTACGTTACCTCGTCGTGAACTTTGACTGC	5.43 PBM z-score against 500 random probes
NRC3_wobSeed21_DR0_G17T_o1 (dsDNA) DNA 1: GCCGTCAAAGTTCAAGTTAACGTAACAGAAAGCAGCGCGATTGACAGCGTAGAATGAAGG DNA 2: CCTTCATTCTACGCTGTCAATCGCGCTGCTTTCTGTTACGTTAACTTGAACTTTGACGGC	5.46 PBM z-score against 500 random probes
NRC3_wobSeed21_DR0_A19T_o1 (dsDNA) DNA 1: GCCGTCAAAGTTCAAGGTTACGTAACAGAAAGCAGCGCGATTGACAGCGTAGAATGAAGG DNA 2: CCTTCATTCTACGCTGTCAATCGCGCTGCTTTCTGTTACGTAACCTTGAACTTTGACGGC	5.43 PBM z-score against 500 random probes
NRC3_wobSeed12_DR0_T8G_o1 (dsDNA) DNA 1: GCCCGACGGGGGCAAGGTTACCATAACGCACAGCCAGCGATTGACAGCGTAGAATGAAGG DNA 2: CCTTCATTCTACGCTGTCAATCGCTGGCTGTGCGTTATGGTAACCTTGCCCCCGTCGGGC	3.13 PBM z-score against 500 random probes
NRC3_wobSeed109_DR4_C6T_o1 (dsDNA) DNA 1: GCCGTTCAAGGTCATAGGAGGTCAGTGAAGACAGATGCGATTGACAGCGTAGAATGAAGG DNA 2: CCTTCATTCTACGCTGTCAATCGCATCTGTCTTCACTGACCTCCTATGACCTTGAACGGC	5.82 PBM z-score against 500 random probes
NRC3_wobSeed49_DR2_A6G_o1 (dsDNA) DNA 1: GCCAAGCTAGGTCAAGAGGTCAAAGTCCGCTTCCCGGCGATTGACAGCGTAGAATGAAGG DNA 2: CCTTCATTCTACGCTGTCAATCGCCGGGAAGCGGACTTTGACCTCTTGACCTAGCTTGGC	5.77 PBM z-score against 500 random probes
NRC3_wobSeed73_DR3_A25C_o1 (dsDNA) DNA 1: GCCAAACTAGGTCACAGAGGTCAACGTCCGTGCGTAGCGATTGACAGCGTAGAATGAAGG DNA 2: CCTTCATTCTACGCTGTCAATCGCTACGCACGGACGTTGACCTCTGTGACCTAGTTTGGC	5.59 PBM z-score against 500 random probes
NRC3_wobSeed112_DR4_C22G_o1 (dsDNA) DNA 1: GCTAGCCTAGGTCAGATCGGGGCAGTATACGCTATAGCGATTGACAGCGTAGAATGAAGG DNA 2: CCTTCATTCTACGCTGTCAATCGCTATAGCGTATACTGCCCCGATCTGACCTAGGCTAGC	3.1 PBM z-score against 500 random probes
NRC3_wobSeed89_DR3_G18A_o1 (dsDNA) DNA 1: GCCTATGTAGGTTAAGGAGGTCATTCAGTTTGAAAGGCGATTGACAGCGTAGAATGAAGG DNA 2: CCTTCATTCTACGCTGTCAATCGCCTTTCAAACTGAATGACCTCCTTAACCTACATAGGC	3.12 PBM z-score against 500 random probes
NRC3_wobSeed117_DR4_A29T_o1 (dsDNA) DNA 1: GCCGTCAAAGTTCAACTAAGGTAACGTATAGCACGCGCGATTGACAGCGTAGAATGAAGG DNA 2: CCTTCATTCTACGCTGTCAATCGCGCGTGCTATACGTTACCTTAGTTGAACTTTGACGGC	5.55 PBM z-score against 500 random probes
NRC3_wobSeed117_DR4_G21T_o1 (dsDNA) DNA 1: GCCGTCAAAGTTCAACTAAGTTAACGTAAAGCACGCGCGATTGACAGCGTAGAATGAAGG DNA 2: CCTTCATTCTACGCTGTCAATCGCGCGTGCTTTACGTTAACTTAGTTGAACTTTGACGGC	5.53 PBM z-score against 500 random probes
NRC3_wobSeed115_DR4_A23C_o1 (dsDNA) DNA 1: GCACAGACAGGTGAGTGAAGGTCACTCAGCTGGACGGCGATTGACAGCGTAGAATGAAGG DNA 2: CCTTCATTCTACGCTGTCAATCGCCGTCCAGCTGAGTGACCTTCACTCACCTGTCTGTGC	3.12 PBM z-score against 500 random probes
NRC3_wobSeed133_DR5_T16C_o1 (dsDNA) DNA 1: GCCGTCCAAGGTCAACGCTAGGTCAGTGAAAGCATTGCGATTGACAGCGTAGAATGAAGG DNA 2: CCTTCATTCTACGCTGTCAATCGCAATGCTTTCACTGACCTAGCGTTGACCTTGGACGGC	5.63 PBM z-score against 500 random probes
NRC3_wobSeed69_DR2_T16G_o1 (dsDNA) DNA 1: GCAGTCAAAGTTCACGAGGTAACGTAAGATTCAGCTGCGATTGACAGCGTAGAATGAAGG DNA 2: CCTTCATTCTACGCTGTCAATCGCAGCTGAATCTTACGTTACCTCGTGAACTTTGACTGC	5.54 PBM z-score against 500 random probes
NRC3_wobSeed97_DR4_A26C_o1 (dsDNA) DNA 1: GCCAAACTAGGTCACGAAAGGTCAACGTCGAATGACGCGATTGACAGCGTAGAATGAAGG DNA 2: CCTTCATTCTACGCTGTCAATCGCGTCATTCGACGTTGACCTTTCGTGACCTAGTTTGGC	6.08 PBM z-score against 500 random probes
NRC3_wobSeed13_DR0_C7T_o1 (dsDNA) DNA 1: GCCGTCTAAGGTCAAGGTCAGTGAAAGAGACTCGAAGCGATTGACAGCGTAGAATGAAGG DNA 2: CCTTCATTCTACGCTGTCAATCGCTTCGAGTCTCTTTCACTGACCTTGACCTTAGACGGC	6 PBM z-score against 500 random probes
NRC3_wobSeed9_DR0_G21T_o1 (dsDNA) DNA 1: GCATCTCTAGGTAAAGTTCATTGAAAGATCGATAGAGCGATTGACAGCGTAGAATGAAGG DNA 2: CCTTCATTCTACGCTGTCAATCGCTCTATCGATCTTTCAATGAACTTTACCTAGAGATGC	3.11 PBM z-score against 500 random probes
NRC3_wobSeed85_DR3_C6G_o1 (dsDNA) DNA 1: GCCGTGCAAGGTCAGAGAGGTCAGTGAATGCCGAGTGCGATTGACAGCGTAGAATGAAGG DNA 2: CCTTCATTCTACGCTGTCAATCGCACTCGGCATTCACTGACCTCTCTGACCTTGCACGGC	5.58 PBM z-score against 500 random probes
NRC3_wobSeed61_DR2_C7T_o1 (dsDNA) DNA 1: GCCGTCTAAGGTCAGCAGGTCAGTGAAAGCGACGTGGCGATTGACAGCGTAGAATGAAGG DNA 2: CCTTCATTCTACGCTGTCAATCGCCACGTCGCTTTCACTGACCTGCTGACCTTAGACGGC	5.58 PBM z-score against 500 random probes
NRC3_wobSeed61_DR2_G15A_o1 (dsDNA) DNA 1: GCCGTCCAAGGTCAACAGGTCAGTGAAAGCGACGTGGCGATTGACAGCGTAGAATGAAGG DNA 2: CCTTCATTCTACGCTGTCAATCGCCACGTCGCTTTCACTGACCTGTTGACCTTGGACGGC	5.56 PBM z-score against 500 random probes
NRC3_wobSeed61_DR2_G23C_o1 (dsDNA) DNA 1: GCCGTCCAAGGTCAGCAGGTCACTGAAAGCGACGTGGCGATTGACAGCGTAGAATGAAGG DNA 2: CCTTCATTCTACGCTGTCAATCGCCACGTCGCTTTCAGTGACCTGCTGACCTTGGACGGC	5.58 PBM z-score against 500 random probes
NRC3_wobSeed51_DR2_T5C_o1 (dsDNA) DNA 1: GCCCCCGGAGGACAGAAGGTCAGAGCTGTCCGCTTTGCGATTGACAGCGTAGAATGAAGG DNA 2: CCTTCATTCTACGCTGTCAATCGCAAAGCGGACAGCTCTGACCTTCTGTCCTCCGGGGGC	3.13 PBM z-score against 500 random probes
NRC3_wobSeed123_DR5_C4G_o1 (dsDNA) DNA 1: GCCGTCGGAGGACAACAGGAGGTCAGAGCTGCCAGAGCGATTGACAGCGTAGAATGAAGG DNA 2: CCTTCATTCTACGCTGTCAATCGCTCTGGCAGCTCTGACCTCCTGTTGTCCTCCGACGGC	3.11 PBM z-score against 500 random probes
NRC3_wobSeed123_DR5_A15C_o1 (dsDNA) DNA 1: GCCCTCGGAGGACACCAGGAGGTCAGAGCTGCCAGAGCGATTGACAGCGTAGAATGAAGG DNA 2: CCTTCATTCTACGCTGTCAATCGCTCTGGCAGCTCTGACCTCCTGGTGTCCTCCGAGGGC	3.1 PBM z-score against 500 random probes

Molecular target: FXR:RXRa (Homo sapiens, UniProt Q96RI1;P19793 full;full)
Sequence (Q96RI1 whole entry, chain 1 of 2): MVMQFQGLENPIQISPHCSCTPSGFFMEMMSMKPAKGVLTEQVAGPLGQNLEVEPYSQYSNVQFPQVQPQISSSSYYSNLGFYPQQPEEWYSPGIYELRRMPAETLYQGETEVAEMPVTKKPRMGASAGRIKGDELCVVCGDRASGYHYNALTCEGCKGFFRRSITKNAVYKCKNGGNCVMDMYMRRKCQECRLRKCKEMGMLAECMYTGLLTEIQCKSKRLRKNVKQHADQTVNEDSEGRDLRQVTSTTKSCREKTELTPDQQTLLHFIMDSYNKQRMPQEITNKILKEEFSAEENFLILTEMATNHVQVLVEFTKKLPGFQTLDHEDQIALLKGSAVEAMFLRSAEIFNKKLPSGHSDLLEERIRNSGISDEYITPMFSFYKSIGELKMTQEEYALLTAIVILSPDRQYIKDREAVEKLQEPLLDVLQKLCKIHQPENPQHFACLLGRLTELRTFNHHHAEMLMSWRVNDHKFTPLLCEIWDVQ
Sequence (P19793 whole entry, chain 2 of 2): as the sequence (P19793 whole entry, chain 2 of 2) above
Test: as above
Details: tags: His kept;His cleaved; copies: 1;1; label: surface-attached array probe
In short: as §1

Binder	binding signal
NRC3_random_hg19_374_o1 (dsDNA) DNA 1: GCTAGACTGGCGACTGCTTGATTCATGGCTGAGTCTGCGATTGACAGCGTAGAATGAAGG DNA 2: CCTTCATTCTACGCTGTCAATCGCAGACTCAGCCATGAATCAAGCAGTCGCCAGTCTAGC	-0.55 PBM z-score against 500 random probes
NRC3_wobSeed39_DR1_G4C_o1 (dsDNA) DNA 1: GCCCAACTAGGTCAAAGGACAGTGAAAGGCGACGTAGCGATTGACAGCGTAGAATGAAGG DNA 2: CCTTCATTCTACGCTGTCAATCGCTACGTCGCCTTTCACTGTCCTTTGACCTAGTTGGGC	3.67 PBM z-score against 500 random probes
NRC3_random_hg19_315_o1 (dsDNA) DNA 1: GCAGTCACACCTAACTGCAGGGAAGTCTATGAAATGGCGATTGACAGCGTAGAATGAAGG DNA 2: CCTTCATTCTACGCTGTCAATCGCCATTTCATAGACTTCCCTGCAGTTAGGTGTGACTGC	-0.43 PBM z-score against 500 random probes
NRC3_random_hg19_149_o1 (dsDNA) DNA 1: GCATGAAACCATGCTCGAGTGTGTGTGTGTGTGTATGCGATTGACAGCGTAGAATGAAGG DNA 2: CCTTCATTCTACGCTGTCAATCGCATACACACACACACACACTCGAGCATGGTTTCATGC	-0.44 PBM z-score against 500 random probes
NRC3_wobSeed136_DR5_T8G_o1 (dsDNA) DNA 1: GCTAGCCGAGGTCATTCAGGGGCCAGTATAGAAAGCGCGATTGACAGCGTAGAATGAAGG DNA 2: CCTTCATTCTACGCTGTCAATCGCGCTTTCTATACTGGCCCCTGAATGACCTCGGCTAGC	7.79 PBM z-score against 500 random probes

Molecular target: RARg:RXRa (Homo sapiens, UniProt P13631;P19793 full;full)
Sequence (P13631 whole entry, chain 1 of 2): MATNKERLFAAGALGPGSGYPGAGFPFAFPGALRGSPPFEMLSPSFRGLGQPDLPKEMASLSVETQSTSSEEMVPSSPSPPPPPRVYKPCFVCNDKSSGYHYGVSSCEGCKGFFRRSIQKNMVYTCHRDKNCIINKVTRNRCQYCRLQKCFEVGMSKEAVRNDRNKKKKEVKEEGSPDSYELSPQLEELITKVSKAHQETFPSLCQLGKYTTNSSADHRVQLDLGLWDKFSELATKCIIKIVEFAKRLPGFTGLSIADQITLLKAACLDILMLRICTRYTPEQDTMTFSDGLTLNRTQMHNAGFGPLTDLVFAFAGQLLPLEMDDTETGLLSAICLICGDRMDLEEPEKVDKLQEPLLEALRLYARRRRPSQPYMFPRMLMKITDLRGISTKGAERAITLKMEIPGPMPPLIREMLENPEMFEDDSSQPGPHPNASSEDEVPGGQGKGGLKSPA
Sequence (P19793 whole entry, chain 2 of 2): as the sequence (P19793 whole entry, chain 2 of 2) above
Test: as above
Details: tags: His kept;His cleaved; copies: 1;1; label: surface-attached array probe
In short: as §1

Binder	binding signal
NRC3_random_hg19_374_o1 (dsDNA) DNA 1: GCTAGACTGGCGACTGCTTGATTCATGGCTGAGTCTGCGATTGACAGCGTAGAATGAAGG DNA 2: CCTTCATTCTACGCTGTCAATCGCAGACTCAGCCATGAATCAAGCAGTCGCCAGTCTAGC	-0.21 PBM z-score against 500 random probes
NRC3_wobSeed39_DR1_G4C_o1 (dsDNA) DNA 1: GCCCAACTAGGTCAAAGGACAGTGAAAGGCGACGTAGCGATTGACAGCGTAGAATGAAGG DNA 2: CCTTCATTCTACGCTGTCAATCGCTACGTCGCCTTTCACTGTCCTTTGACCTAGTTGGGC	3.99 PBM z-score against 500 random probes
NRC3_random_hg19_315_o1 (dsDNA) DNA 1: GCAGTCACACCTAACTGCAGGGAAGTCTATGAAATGGCGATTGACAGCGTAGAATGAAGG DNA 2: CCTTCATTCTACGCTGTCAATCGCCATTTCATAGACTTCCCTGCAGTTAGGTGTGACTGC	-0.2 PBM z-score against 500 random probes
NRC3_random_hg19_149_o1 (dsDNA) DNA 1: GCATGAAACCATGCTCGAGTGTGTGTGTGTGTGTATGCGATTGACAGCGTAGAATGAAGG DNA 2: CCTTCATTCTACGCTGTCAATCGCATACACACACACACACACTCGAGCATGGTTTCATGC	-0.37 PBM z-score against 500 random probes
NRC3_wobSeed136_DR5_T8G_o1 (dsDNA) DNA 1: GCTAGCCGAGGTCATTCAGGGGCCAGTATAGAAAGCGCGATTGACAGCGTAGAATGAAGG DNA 2: CCTTCATTCTACGCTGTCAATCGCGCTTTCTATACTGGCCCCTGAATGACCTCGGCTAGC	7.94 PBM z-score against 500 random probes
